Patent publication US20220259289A1 (Janssen / Centocor, published 2022)
Where a chain is given by its changes, count along the chain named.

B1: ISOP120HR5P1E2 (designed binder, not shown: small tags and cut ends)
chain: LPAPKNLVVSHVTEDSARLSWTAPDAAFDSFEIYYLEGGRGEAIVLTVPGSERSYDLTVLKPGTEYLGTIYGVKCGWASNPLSAIFTT
notes: FN3 domain (Centyrin); tested as E. coli lysate
B2: ISOP193ER9P1A3 (designed binder, not shown: small tags and cut ends)
chain: LPAPKNLVVSRVTEDSARLSWTTPDAAFDSFDIYYFEHPVGGEAIVLTVPGSERSYDLTGLKPGTEYLVTIYGVKGGYLSKPLSAIFTT
B3: ISOP193ER9P1E1 (designed binder, not shown: small tags and cut ends)
chain: B2 chain with T23A, Y78S, L79V, K81I
B4: ISOP193ER9P1C10 (designed binder, not shown: small tags and cut ends)
chain: LLAPKNLVVSRVTEDSARLSWIAPDAAFDSFEIYYKELRAEGEAIVLTVPGSERSYDLTGLKPGTEYLVTIYGVKGGSVSIPLSAIFTT
B5: ISOP193ER9P1C9 (designed binder, not shown: small tags and cut ends)
chain: B2 chain with T23A, Y78E, F87S
B6: ISOP193ER9P1C4 (designed binder, not shown: small tags and cut ends)
chain: B2 chain with T23A, Y78I, L79W, K81V
B7: ISOP193ER9P1D4 (designed binder, not shown: small tags and cut ends)
chain: B2 chain with T23A, Y78T, L79Y, K81P
B8: ISOP193ER9P1G2 (designed binder, not shown: small tags and cut ends)
chain: B2 chain with T23A, H38Q, K81M
B9: ISOP193ER9P1G9 (designed binder, not shown: small tags and cut ends)
chain: B2 chain with T23A, Y78N, L79G, K81S
B10: ISOP193ER9P1A4 (designed binder, not shown: small tags and cut ends)
chain: B4 chain with L2P, V8I, I22T
B11: ISOP193ER9P1E2 (designed binder, not shown: small tags and cut ends)
chain: B2 chain with T23A, Y78F, L79W, K81Q
B12: ISOP193HR9P1E6 (designed binder, not shown: small tags and cut ends)
chain: LPAPKNLVVSRVTEDSARLSWTAPDAAFDSFEIYYAEFGYYGEAIVLTVPGSERSYDLTGLKPGTEYLVTIYGVKGCAASDPLSAIFTT
B13: ISOP193HR9P1A11 (designed binder, not shown: small tags and cut ends)
chain: B1 chain with H11R, V59G, G68V

biological target: T1, recombinant biotinylated human CD137 protein (Fc-fusion protein, R&D Systems 838-4B) (human, UniProt Q07011 24-186, biotinylated (site not stated)); experiment: ELISA, bacterial lysate on plate-bound antigen, luminescence
T1 construct: Bought Fc fusion; The ELISA used the same antigen as the panning; also called CD137-Fc; biotinylated CD137; not shown: Fc part of the bought fusion protein
Outline: (§1)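 Biotinylated CD137-Fc, an unrelated Fc-fusion protein or human serum albumin captured 1 h on streptavidin plates blocked in Starting Block T20; diluted bacterial lysate applied 1 h. Bound binders detected with HRP-conjugated anti-Centyrin antibody (PAB25) for 1 h, then POD substrate read-out.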

Row | ELISA CD137-Fc (RLU) | Binder
1 | 1.32e+06 | B1

biological target: human serum albumin (human) (UniProt P02768); experiment: as above
Sequence (P02768 25-609 limits assumed): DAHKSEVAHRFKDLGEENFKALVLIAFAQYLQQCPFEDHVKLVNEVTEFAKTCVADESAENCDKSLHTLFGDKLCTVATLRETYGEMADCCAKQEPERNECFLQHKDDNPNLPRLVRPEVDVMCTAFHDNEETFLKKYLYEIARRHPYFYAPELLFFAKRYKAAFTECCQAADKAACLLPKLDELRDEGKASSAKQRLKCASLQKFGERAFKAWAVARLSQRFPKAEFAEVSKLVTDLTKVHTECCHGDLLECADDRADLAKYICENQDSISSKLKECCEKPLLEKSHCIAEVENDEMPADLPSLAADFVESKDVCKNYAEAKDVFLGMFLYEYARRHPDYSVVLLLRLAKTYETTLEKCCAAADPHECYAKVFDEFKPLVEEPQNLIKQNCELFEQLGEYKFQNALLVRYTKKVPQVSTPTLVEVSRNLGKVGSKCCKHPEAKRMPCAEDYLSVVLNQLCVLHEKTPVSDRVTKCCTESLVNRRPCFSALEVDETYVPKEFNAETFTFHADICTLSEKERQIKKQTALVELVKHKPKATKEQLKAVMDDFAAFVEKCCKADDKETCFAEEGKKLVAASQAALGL

Row | ELISA HSA (RLU) | Binder
2 | 2880 | B1

biological target: unrelated Fc-fused recombinant protein (negative control); experiment: as above

Row | ELISA Fc Control (RLU) | Binder
3 | 720 | B1

biological target: T2, recombinant human CD137-Fc-IgG1 (human, UniProt Q07011 24-186, limits assumed); experiment: SPR (Biacore T100), CD137-Fc captured by anti human IgG, 1:1 model
T2 construct: Captured by anti human IgG on the Biacore chip
Method: For selected FN3 domains, binding to recombinant CD137-Fc was evaluated using surface plasmon resonance (Biacore T100). For each cycle approximately 500 RU of recombinant human CD137-Fc-IgG1 was captured via an anti human IgG immobilized on the surface of a CMS chip. Once CD137-Fc protein was captured, increasing concentrations of Centyrin candidates were injected for 120 s and dissociation was then analyzed for 240 s. A flow cell immobilized with just the anti human IgG1 antibody served as reference flow cell. Kd values were subsequently extrapolated using a 1:1 kinetic binding model (BiaEvaluation software).

Row | Kd [nM] | Binder
4 | 8.3 | B2
5 | 10.6 | B3
6 | 108 | B4
7 | 25.1 | B5
8 | 13.1 | B6
9 | 9.55 | B7
10 | 65.6 | B8
11 | 59.9 | B9
12 | 117 | B10
13 | 10.9 | B11

biological target: T3, recombinant biotinylated CD137 protein (Fc-fusion protein, R&D Systems 838-4B) (human, UniProt Q07011 24-186, biotinylated, sites not stated); experiment: ELISA, lysate on biotinylated CD137-Fc
T3 construct: Bought Fc fusion; also called CD137-Fc
Outline: as §1

Row | ELISA CD137 (RLU) | Binder
14 | 1.42e+07 | B2
15 | 1.5e+07 | B3
16 | 8.87e+06 | B4
17 | 1.43e+07 | B5
18 | 1.55e+07 | B6
19 | 1.6e+07 | B7
20 | 7.19e+06 | B8
21 | 1.29e+07 | B9
22 | 9.81e+06 | B10
23 | 1.13e+07 | B12
24 | 1.57e+07 | B11
25 | 1.66e+07 | B13

biological target: extracellular domain of human CD137 on the surface of CHO-K1 cells (human, UniProt Q07011 24-186); experiment: flow cytometry on CHO-K1 cells with human CD137 ECD
Method: Cell surface binding was analyzed via flow cytometry. Cenyrins were prepared at a maximal concentration of 500 nM in the presence of 125 nM anti His-mIgG1 antibody and then serially diluted in PBS/1% FCS buffer. Samples were then applied to approx 100 000 CHO-Kl cells expressing the extracellular domain of human CD137 on their surface. Unbound Centyrin/Antibody complexes were washed away and bound FN3 domains were detected by the addition of goat anti mouse-FITC labeled antibody. Samples were then aquired by flow cytometry. Subsequently, Mean flurescence intensity was plotted against the log Centyrin concentration and EC50 values were calculated by nonlinear regression using GraphPad Prism.

Row | EC50 [nM] | Binder
26 | 10.2 | B2
27 | 12.6 | B3
28 | 31 | B4
29 | 14.1 | B5
30 | 18.9 | B6
31 | 12.9 | B7
32 | 22.9 | B8
33 | 15.3 | B9
34 | 27.1 | B10
35 | 15.3 | B11

biological target: human serum albumin (human) (UniProt P02768); experiment: ELISA, negative control HSA

Row | ELISA HSA (RLU) | Binder
36 | 3040 | B12
37 | 4240 | B13

biological target: T4, human serum albumin (human, UniProt P02768 25-609); experiment: ELISA, negative control HSA
T4 construct: Negative control of the ELISA; also called HSA
T4 sequence (P02768 25-609 limits assumed): as above
Outline: as §1

Row | ELISA HSA (RLU) | Binder
38 | 880 | B2
39 | 560 | B3
40 | 560 | B4
41 | 560 | B5
42 | 320 | B6
43 | 480 | B7
44 | 720 | B8
45 | 400 | B9
46 | 480 | B10
47 | 560 | B11

biological target: unrelated Fc-fused recombinant protein; experiment: ELISA, negative control Fc protein

Row | ELISA Fc Control (RLU) | Binder
48 | 3040 | B2
49 | 1200 | B3
50 | 2480 | B4
51 | 880 | B5
52 | 960 | B6
53 | 1120 | B7
54 | 1680 | B8
55 | 1280 | B9
56 | 960 | B10
57 | 20100 | B12
58 | 1040 | B11
59 | 28300 | B13
